Experimental data published in publication PMC9769622, “ATPase Activity of Bacillus subtilis RecA Affects the Dynamic Formation of RecA Filaments at DNA Double Strand Breaks” (mSphere, 2022).
Values belong to the molecule of their own block, whether it stands above or below them.

How the values were obtained:
[1] = target: T1, RecA (RecAWT) (Bacillus subtilis, UniProt P16971); assay: malachite green phosphate release; kinetic analysis of ATP binding; assay type: biochemical; conditions: with salmon sperm ssDNA, Mg2+, pH 7.4, 37 C
T1 construct: 6xHis tag kept (text says C-terminal, also written 6xHis-RecA); pET28a, E. coli BL21(DE3); about 38 kDa monomer
T1 sequence (P16971 11-348): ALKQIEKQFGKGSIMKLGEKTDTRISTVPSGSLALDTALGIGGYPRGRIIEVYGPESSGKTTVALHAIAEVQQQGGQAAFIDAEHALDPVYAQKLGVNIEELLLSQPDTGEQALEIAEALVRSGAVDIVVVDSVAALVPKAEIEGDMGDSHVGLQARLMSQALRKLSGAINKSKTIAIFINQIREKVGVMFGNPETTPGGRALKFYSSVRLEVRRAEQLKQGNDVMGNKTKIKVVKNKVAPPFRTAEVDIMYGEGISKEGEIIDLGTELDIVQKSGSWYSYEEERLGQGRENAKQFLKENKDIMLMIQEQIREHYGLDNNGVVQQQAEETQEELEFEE

[2] = target: Bacillus subtilis RecA K70A Walker A mutant, hexa-histidine fusion protein (B. subtilis) (UniProt P16971); assay: mass photometry; protein alone; 2 uL sample added to 18 uL PBS pH 7.4, room temperature; 137 mM salt; poly-L-lysine coated coverslips
[3] = target: Bacillus subtilis RecA K70R Walker A mutant, hexa-histidine fusion protein (B. subtilis) (UniProt P16971); assay: mass photometry; protein mixed with 32 nt ssDNA oligonucleotides and 1 mmol/l ATP, incubated 10 min at 37°C; measured in PBS pH 7.4
[4] = target: Bacillus subtilis RecA K70R Walker A mutant, hexa-histidine fusion protein (B. subtilis) (UniProt P16971); assay: mass photometry; protein alone; 2 uL sample added to 18 uL PBS pH 7.4, room temperature; 137 mM salt; poly-L-lysine coated coverslips
[5] = target: Bacillus subtilis RecA, wild type, hexa-histidine fusion protein (B. subtilis) (UniProt P16971); assay: as above

Molecule: Nc1ncnc2c1ncn2[C@@H]1O[C@H](COP(=O)(O)OP(=O)(O)OP(=O)(O)O)[C@@H](O)[C@H]1O [ATP]
- malachite green phosphate release; kinetic analysis of ATP binding [1]: activity of wild type RecA comparable to that of E. coli RecA

- stoichiometry N [2]: 2
Molecule: Bacillus subtilis RecA K70A Walker A mutant, hexa-histidine fusion protein (from UniProt P16971 11-348) (natural protein)

- stoichiometry N [3]: 2
- stoichiometry N [4]: 2
Molecule: Bacillus subtilis RecA K70R Walker A mutant, hexa-histidine fusion protein (from UniProt P16971 11-348) (natural protein)

- stoichiometry N [5]: 2
Molecule: Bacillus subtilis RecA, wild type, hexa-histidine fusion protein (from UniProt P16971 11-348) (natural protein)
